{"source": "paper PMC8191316", "about": "“Structural basis for CD97 recognition of the decay-accelerating factor CD55 suggests mechanosensitive activation of adhesion GPCRs” (The Journal of Biological Chemistry, 2021)", "molecules": {"B1": {"name": "CD55 SCR1–4 domains (35–285), His-tagged (domain or fragment)", "chain": "DCGLPPDVPNAQPALEGRTSFPEDTVITYKCEESFVKIPGEKDSVICLKGSQWSDIEEFCNRSCEVPTRLNSASLKQPYITQNYFPVGTVVEYECRPGYRREPSLSPKLTCLQNLKWSTAVEFCKKKSCPNPGEIRNGQIDVPGGILFGATISFSCNTGYKLFGSTSSFCLISGSSVQWSDPLPECREIYCPAPPQIDNGIIQGERDHYGYRQSVTYACNKGFTMIGEHSIYCTVNNDEGEWSGPPPECRG"}}, "key": {"[1]": {"target": "CD55 SCR1–4 domains (35–285), His-tagged (human) (UniProt P08174)", "assay": "SPR; Biacore T200; His-tagged CD55 immobilized on nickel coated NTA chip; CD97 (WT, mutants) or EMR2 without His-tag injected at 50 μl/min for 2 min; 20 mM Tris, pH 7.5, 200 mM NaCl, 2 mM CaCl2, 0.05% Tween 20"}, "[2]": {"target": "B1", "assay": "SPR"}, "[3]": {"target": "T1, CD97 EGF_(1,2,5) fragment D81A, without His-tag (human, UniProt P48960-2 21-165, D81A)", "T1 sequence": "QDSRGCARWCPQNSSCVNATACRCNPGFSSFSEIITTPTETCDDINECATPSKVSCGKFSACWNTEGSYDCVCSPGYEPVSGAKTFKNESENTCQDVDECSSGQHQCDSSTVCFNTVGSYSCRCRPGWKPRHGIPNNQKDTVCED", "assay": "SPR"}, "[4]": {"target": "T2, CD97 EGF_(1,2,5) fragment D63L, without His-tag (human, UniProt P48960-2 21-165, D63L)", "T2 sequence": "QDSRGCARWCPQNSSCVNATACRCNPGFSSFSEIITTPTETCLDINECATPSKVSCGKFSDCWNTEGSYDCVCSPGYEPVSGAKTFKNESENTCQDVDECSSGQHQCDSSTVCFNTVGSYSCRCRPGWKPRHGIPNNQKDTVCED", "assay": "SPR"}, "[5]": {"target": "T3, CD97 EGF_(1,2,5) fragment V137A, without His-tag (human, UniProt P48960-2 21-165, V137A)", "T3 sequence": "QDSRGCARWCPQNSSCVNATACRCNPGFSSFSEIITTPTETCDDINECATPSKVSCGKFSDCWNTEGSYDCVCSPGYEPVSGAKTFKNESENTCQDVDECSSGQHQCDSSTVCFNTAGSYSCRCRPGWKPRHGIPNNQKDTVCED", "assay": "SPR"}, "[6]": {"target": "T4, CD97 EGF_(1,2,5) fragment E86A, without His-tag (human, UniProt P48960-2 21-165, E86A)", "T4 sequence": "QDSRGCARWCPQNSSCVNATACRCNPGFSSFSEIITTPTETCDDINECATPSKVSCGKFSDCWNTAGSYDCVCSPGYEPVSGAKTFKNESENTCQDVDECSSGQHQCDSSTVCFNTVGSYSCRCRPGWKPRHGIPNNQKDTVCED", "assay": "SPR"}, "[7]": {"target": "T5, CD55 SCR1–4 domains (35–285), His-tagged (human, UniProt P08174 35-285)", "T5 construct": "CD55 (complement decay-accelerating factor), human, UniProt P08174, SCR1–4 domains, residues 35–285; Vector pLEXm with N-terminal signal peptide; codon-optimized gene; In the crystal and SAXS rows it stood as the C-terminal part of the chimera m9; also called decay-accelerating factor; not shown: His6, C-terminal, kept", "T5 sequence (looked up)": "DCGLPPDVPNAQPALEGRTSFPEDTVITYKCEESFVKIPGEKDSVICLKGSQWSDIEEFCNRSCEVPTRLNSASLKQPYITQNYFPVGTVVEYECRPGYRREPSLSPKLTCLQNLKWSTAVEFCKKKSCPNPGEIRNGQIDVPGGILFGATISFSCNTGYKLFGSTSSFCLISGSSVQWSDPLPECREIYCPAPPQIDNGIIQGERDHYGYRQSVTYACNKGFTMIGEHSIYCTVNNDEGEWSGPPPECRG", "assay": "SPR; Biacore T200; His-tagged CD55 immobilized on nickel coated NTA chip; CD97 (WT, mutants) or EMR2 without His-tag injected at 50 μl/min for 2 min; 20 mM Tris, pH 7.5, 200 mM NaCl, 2 mM CaCl2, 0.05% Tween 20", "conditions": "both partners purified"}}, "data": [{"molecule": "CD97 EGF_(1,2,5) fragment, WT, without His-tag (SPR construct with TEV site) (from UniProt P48960-2 21-165) (domain or fragment)", "values": [{"measurement": "Kd", "setting": "[1]", "value": 3.2, "unit": "µM"}, {"measurement": "koff", "setting": "[1]", "value": 0.00173, "unit": "s⁻¹"}, {"measurement": "kon", "setting": "[1]", "value": 546, "unit": "M⁻¹ s⁻¹"}]}, {"molecule": "EMR2 EGF_(1,2,5) (24–168) fragment, His6 removed (domain or fragment) QDSRGCARWCPQDSSCVNATACRCNPGFSSFSEIITTPMETCDDINECATLSKVSCGKFSDCWNTEGSYDCVCSPGYEPVSGAKTFKNESENTCQDVDECSSGQHQCDSSTVCFNTVGSYSCRCRPGWKPRHGIPNNQKDTVCED", "values": [{"measurement": "koff", "setting": "[2]", "value": 0.00149, "unit": "s⁻¹"}, {"measurement": "Kd", "setting": "[1]", "value": 43, "unit": "µM"}]}, {"molecule": "B1", "values": [{"measurement": "koff", "setting": "[3]", "value": 0.00122, "unit": "s⁻¹"}, {"measurement": "koff", "setting": "[4]", "value": 0.000968, "unit": "s⁻¹"}, {"measurement": "koff", "setting": "[5]", "value": 0.00163, "unit": "s⁻¹"}, {"measurement": "koff", "setting": "[6]", "value": 0.00141, "unit": "s⁻¹"}]}, {"molecule": "CD97 EGF_(1,2,5) fragment D63L, without His-tag (domain or fragment, human, UniProt P48960-2 21-165, looked up, CD97, human, EGF_(1,2,5) isoform fragment, residues 21–165, with D63L; Made by overlapping PCR, cloned to the same vector as m3; not shown: His6, C-terminal, cleaved) QDSRGCARWCPQNSSCVNATACRCNPGFSSFSEIITTPTETCLDINECATPSKVSCGKFSDCWNTEGSYDCVCSPGYEPVSGAKTFKNESENTCQDVDECSSGQHQCDSSTVCFNTVGSYSCRCRPGWKPRHGIPNNQKDTVCED", "values": [{"measurement": "Kd", "setting": "[7]", "value": 85.2, "unit": "µM"}]}, {"molecule": "CD97 EGF_(1,2,5) fragment D81A, without His-tag (domain or fragment, human, UniProt P48960-2 21-165, looked up, CD97, human, EGF_(1,2,5) isoform fragment, residues 21–165, with D81A; Made by overlapping PCR, cloned to the same vector as m3; not shown: His6, C-terminal, cleaved) QDSRGCARWCPQNSSCVNATACRCNPGFSSFSEIITTPTETCDDINECATPSKVSCGKFSACWNTEGSYDCVCSPGYEPVSGAKTFKNESENTCQDVDECSSGQHQCDSSTVCFNTVGSYSCRCRPGWKPRHGIPNNQKDTVCED", "values": [{"measurement": "Kd", "setting": "[7]", "value": 66.4, "unit": "µM"}]}, {"molecule": "CD97 EGF_(1,2,5) fragment E86A, without His-tag (domain or fragment, human, UniProt P48960-2 21-165, looked up, CD97, human, EGF_(1,2,5) isoform fragment, residues 21–165, with E86A; Made by overlapping PCR, cloned to the same vector as m3; not shown: His6, C-terminal, cleaved) QDSRGCARWCPQNSSCVNATACRCNPGFSSFSEIITTPTETCDDINECATPSKVSCGKFSDCWNTAGSYDCVCSPGYEPVSGAKTFKNESENTCQDVDECSSGQHQCDSSTVCFNTVGSYSCRCRPGWKPRHGIPNNQKDTVCED", "values": [{"measurement": "Kd", "setting": "[7]", "value": 17.6, "unit": "µM"}]}, {"molecule": "CD97 EGF_(1,2,5) fragment V137A, without His-tag (domain or fragment, human, UniProt P48960-2 21-165, looked up, CD97, human, EGF_(1,2,5) isoform fragment, residues 21–165, with V137A (in EGF5); Made by overlapping PCR, cloned to the same vector as m3; also called V137A mutant; not shown: His6, C-terminal, cleaved) QDSRGCARWCPQNSSCVNATACRCNPGFSSFSEIITTPTETCDDINECATPSKVSCGKFSDCWNTEGSYDCVCSPGYEPVSGAKTFKNESENTCQDVDECSSGQHQCDSSTVCFNTAGSYSCRCRPGWKPRHGIPNNQKDTVCED", "values": [{"measurement": "Kd", "setting": "[7]", "value": 25.3, "unit": "µM"}]}]}
